Source: article PMC2676576

How the values were obtained:
[1] = target: STAM(300-387) of ESCRT-0 core construct b (human) (UniProt Q92783); experiment: SDS-PAGE and mass spectrometry of dissolved crystals
[2] = target: recombinant full-length human STAM of the full-length ESCRT-0 complex (human) (UniProt Q92783); experiment: AUC
[3] = target: recombinant full-length human STAM of the full-length ESCRT-0 complex (human) (UniProt Q92783); experiment: SEC-MALS

Chain of recombinant full-length human STAM of the full-length ESCRT-0 complex (human) (Q92783 whole entry, one chain of several): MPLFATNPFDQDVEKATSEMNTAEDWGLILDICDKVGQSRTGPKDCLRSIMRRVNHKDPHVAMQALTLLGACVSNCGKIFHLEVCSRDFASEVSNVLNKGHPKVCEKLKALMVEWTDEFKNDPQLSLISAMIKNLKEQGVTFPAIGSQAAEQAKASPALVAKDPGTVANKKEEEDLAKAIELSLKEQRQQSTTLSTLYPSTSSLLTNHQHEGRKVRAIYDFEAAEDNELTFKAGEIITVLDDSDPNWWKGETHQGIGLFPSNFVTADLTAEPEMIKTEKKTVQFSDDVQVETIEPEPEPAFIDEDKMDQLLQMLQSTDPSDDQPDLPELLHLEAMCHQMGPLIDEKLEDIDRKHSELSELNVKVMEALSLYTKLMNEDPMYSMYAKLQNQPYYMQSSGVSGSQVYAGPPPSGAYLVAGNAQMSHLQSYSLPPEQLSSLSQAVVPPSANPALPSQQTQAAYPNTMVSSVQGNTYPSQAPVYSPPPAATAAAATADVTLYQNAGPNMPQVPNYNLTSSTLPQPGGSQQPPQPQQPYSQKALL
Chain of Hrs(398-557) of ESCRT-0 core construct b (O14964 398-514): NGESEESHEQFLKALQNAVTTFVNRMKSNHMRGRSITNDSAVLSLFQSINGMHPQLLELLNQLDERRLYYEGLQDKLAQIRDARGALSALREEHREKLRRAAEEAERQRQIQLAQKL

Question: With “Hrs(398-557) of ESCRT-0 core construct b (from UniProt O14964 398-557) (domain or fragment)” as the substance, how does the stoichiometry N [1] read?
Answer: 1 Hrs:STAM

Question: “recombinant full-length Hrs (mouse Hrs gene) of the full-length ESCRT-0 complex (from UniProt Q99LI8 1-775) (natural protein)” was tested. Which stoichiometry N [2] did it give?
Answer: 1 Hrs:STAM

Question: What about the stoichiometry N [3] of the same substance?
Answer: 1 Hrs:STAM
